Source: patent US10772928B2, “Modulation and detection of a neuronal alternative splicing regulatory network for treatment and diagnosis of neurological disorders” (The Governing Council of the University of Toronto, priority 2014, dated 2020)

T1: nSR100 (Mus musculus, UniProt Q8BKA3)
T1 construct: host or cells: mouse N2A cells
T1 sequence (Q8BKA3 1-608): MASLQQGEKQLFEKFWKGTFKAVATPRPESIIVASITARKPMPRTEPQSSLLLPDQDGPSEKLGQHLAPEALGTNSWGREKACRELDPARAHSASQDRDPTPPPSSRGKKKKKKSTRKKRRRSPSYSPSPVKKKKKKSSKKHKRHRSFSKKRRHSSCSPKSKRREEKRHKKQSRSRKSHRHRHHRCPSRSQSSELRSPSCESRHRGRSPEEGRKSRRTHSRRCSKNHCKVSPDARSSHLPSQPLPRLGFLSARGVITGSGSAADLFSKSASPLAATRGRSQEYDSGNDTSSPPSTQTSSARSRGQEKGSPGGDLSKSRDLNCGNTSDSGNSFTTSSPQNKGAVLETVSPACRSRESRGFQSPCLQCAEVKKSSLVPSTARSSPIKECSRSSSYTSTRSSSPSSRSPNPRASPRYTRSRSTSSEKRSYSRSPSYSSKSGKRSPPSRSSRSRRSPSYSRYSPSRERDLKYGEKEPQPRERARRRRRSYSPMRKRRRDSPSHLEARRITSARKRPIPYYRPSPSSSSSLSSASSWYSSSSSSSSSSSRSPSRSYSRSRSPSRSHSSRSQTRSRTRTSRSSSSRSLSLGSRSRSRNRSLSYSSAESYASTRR


Target: T1, nSR100
Assay: AP-MS nSR100 interaction partners from mouse N2A cells (Table 5)
Type: binding
Settings: for AvgP (average of the SAINT scores) / MaxP (maximal SAINT score): bait Srrm4; for FoldChange between the prey Avg spectra of the bait and control purifications: bait Srrm4, 0.1 added to prevent division by 0; for AvgSpec (average number of spectra per replicate): bait Srrm4, 2 replicates; for Spectra (number of spectra for the prey in the purification of the bait): AP-MS; for SpecSum: bait Srrm4, sum of spectra over 2 replicates
[1] = bait Srrm4, biological replicate 1 (first number of the cell)
[2] = bait Srrm4, biological replicate 2 (second number of the cell)

Text: By applying affinity purification coupled to mass-spectrometry (AP-MS), several interaction nSR100 partner proteins were detected that provide insight into mechanisms of post-translational regulation of nSR100 levels.

AvgP (average of the SAINT scores)	MaxP (maximal SAINT score)	FoldChange between the prey Avg spectra of the bait and control purifications	AvgSpec (average number of spectra per replicate)	Spectra (number of spectra for the prey in the purification of the bait) [1]	Spectra (number of spectra for the prey in the purification of the bait) [2]	SpecSum	Molecule
1	1	40	4	5	3	8	Tfip11 (protein, UniProt Q9ERA6 1-838, looked up) Tuftelin-interacting protein …: MSLSHLYRDGEGHLDDDDDDERENFEITDWDLQNEFNPNRQRHWQTKEEATYGVWAERDSDEERPSFGGKRARDYSAPVNFISAGLKKGAAEEADSEDSDAEEKPVKQEDFPKDLGPKKLKTGGNFKPSQKGFSGGTKSFMDFGSWERHTKGIGQKLLQKMGYVPGRGLGKNAQGIINPIEAKQRKGKGAVGAYGSERTTQSLQDFPVADSEEEAEEEFQKELSQWRKDPSGSKKKPKYSYKTVEELKAKGRVSKKLTAPQKELSQVKVIDMTGREQKVYYSYSQISHKHSVPDEGVPLLAQLPPTAGKEARMPGFALPELEHNLQLLIERTEQEIIQSDRQLQYERDMVVSLSHELEKTAEVLAHEERVISNLSKVLALVEECERRMQPHGADPLTLDECARIFETLQDKYYEEYRLADRADLAVAIVYPLVKDYFKDWHPLEDGSYGTQIISKWKSLLENDQLLSHSSQDLSSDAFHRLMWEVWMPFVRNVVAQWQPRNCEPMVDFLDSWAHIIPVWILDNILDQLIFPKLQKEVDNWNPLTDTVPIHSWIHPWLPLMQARLEPLYSPVRSKLSSALQKWHPSDASAKLILQPWKEVLTPGSWEAFMLRNIVPKLGMCLGELVINPHQQHMDAFYWVMDWEGMISVSSLVGLLEKHFFPKWLQVLCSWLSNSPNYEEITKWYLGWKSMFSDQVLAHPSVKDKFNEALDIMNRAVSSNVGAYMQPGARENIAYLTHTERRKDFQYEAMQERREAENMAQRGIGVAASSVPMNFKDLIETKAEEHNIVFMPVIGKRHEGKQLYTFGRIVIYIDRGVVFVQGEKTWVPTSLQSLIDMAK
0.89	1	5.5	11	7	15	22	Cyfip1 (protein, UniProt Q7TMB8 1-1253, looked up) Cytoplasmic FMR1-interacting …: MAAQVTLEDALSNVDLLEELPLPDQQPCIEPPPSSLLYQPNFNTNFEDRNAFVTGIARYIEQATVHSSMNEMLEEGQEYAVMLYTWRSCSRAIPQVKCNEQPNRVEIYEKTVEVLEPEVTKLMNFMYFQRNAIERFCGEVRRLCHAERRKDFVSEAYLITLGKFINMFAVLDELKNMKCSVKNDHSAYKRAAQFLRKMADPQSIQESQNLSMFLANHNKITQSLQQQLEVISGYEELLADIVNLCVDYYENRMYLTPSEKHMLLKVMGFGLYLMDGSVSNIYKLDAKKRINLSKIDKYFKQLQVVPLFGDMQIELARYIKTSAHYEENKSRWTCASSSSSPQYNICEQMIQIREDHMRFISELARYSNSEVVTGSGRQEAQKTDAEYRKLFDLALQGLQLLSQWSAHVMEVYSWKLVHPTDKYSNKDCPDNAEEYERATRYNYTTEEKFALVEVIAMIKGLQVLMGRMESVFNHAIRHTVYAALQDFSQVTLREPLRQAIKKKKNVIQSVLQAIRKTVCDWETGHEPFNDPALRGEKDPKSGFDIKVPRRAVGPSSTQLYMVRTMLESLIADKSGSKKTLRSSLEGPTILDIEKFHRESFFYTHLINFSETLQQCCDLSQLWFREFFLELTMGRRIQFPIEMSMPWILTDHILETKEASMMEYVLYSLDLYNDSAHYALTKFNKQFLYDEIEAEVNLCFDQFVYKLADQIFAYYKVMAGSLLLDKRLRSECKNQGATIHLPPSNRYETLLKQRHVQLLGRSIDLNRLITQRVSAAMYKSLELAIGRFESEDLTSVVELDGLLEINRMTHKLLSRYLTLDSFDAMFREANHNVSAPYGRITLHVFWELNYDFLPNYCYNGSTNRFVRTVLPFSQEFQRDKQPNAQPQYLHGSKALNLAYSSIYGSYRNFVGPPHFQVICRLLGYQGIAVVMEELLKVVKSLLQGTILQYVKTLMEVMPKICRLPRHEYGSPGILEFFHHQLKDIVEYAELKTVCFQNLREVGNAVLFCLLIEQSLSLEEVCDLLHAAPFQNILPRIHVKEGERVDAKMKRLESKYAPLHLVPLIERLGTPQQIAIAREGDLLTKERLCCGLSMFEVILTRIRTFLDDPIWRGPLPSNGVMHVDECVEFHRLWSAMQFVYCIPVGTHEFTVEQCFGDGLHWAGCMIIVLLGQQRRFAVLDFCYHLLKVQKHDGKDEIIKNVPLKKMVERIRKFQILNDEIITILDKYLKSGDGESTPVEHVRCFQPPIHQSLASS
1	1	5.46	65.5	65	66	131	Rbm39 (protein, UniProt Q8VH51 2-530, looked up) RNA-binding protein 39: ADDIDIEAMLEAPYKKDENKLNSANGHEERSKKRKKSKSRSRSHERKRSKSKERKRSRDRERKKSKSRERKRSRSKERRRSRSRSRDRRFRGRYRSPYSGPKFNSAIRGKIGLPHSIKLSRRRSRSKSPFRKDKSPVREPIDNLTPEERDARTVFCMQLAARIRPRDLEEFFSTVGKVRDVRMISDRNSRRSKGIAYVEFVDVSSVPLAIGLTGQRVLGVPIIVQASQAEKNRAAAMANNLQKGSAGPMRLYVGSLHFNITEDMLRGIFEPFGRIESIQLMMDSETGRSKGYGFITFSDSECAKKALEQLNGFELAGRPMKVGHVTERTDASSASSFLDSDELERTGIDLGTTGRLQLMARLAEGTGLQIPPAAQQALQMSGSLAFGAVAEFSFVIDLQTRLSQQTEASALAAAASVQPLATQCFQLSNMFNPQTEEEVGWDTEIKDDVIEECNKHGGVIHIYVDKNSAQGNVYVKCPSIAAAIAAVNALHGRWFAGKMITAAYVPLPTYHNLFPDSMTATQLLVPSRR
1	1	7.2	54	46	62	108	Ap2a1 (protein, UniProt P17426 1-977, looked up) AP-2 complex subunit alpha-1: MPAVSKGDGMRGLAVFISDIRNCKSKEAEIKRINKELANIRSKFKGDKALDGYSKKKYVCKLLFIFLLGHDIDFGHMEAVNLLSSNKYTEKQIGYLFISVLVNSNSELIRLINNAIKNDLASRNPTFMCLALHCIANVGSREMGEAFAADIPRILVAGDSMDSVKQSAALCLLRLYKASPDLVPMGEWTARVVHLLNDQHMGVVTAAVSLITCLCKKNPDDFKTCISLAVSRLSRIVSSASTDLQDYTYYFVPAPWLSVKLLRLLQCYPPPEDAAVKGRLVECLETVLNKAQEPPKSKKVQHSNAKNAILFETISLIIHYDSEPNLLVRACNQLGQFLQHRETNLRYLALESMCTLASSEFSHEAVKTHIDTVINALKTERDVSVRQRAADLLYAMCDRSNAKQIVSEMLRYLETADYAIREEIVLKVAILAEKYAVDYSWYVDTILNLIRIAGDYVSEEVWYRVLQIVTNRDDVQGYAAKTVFEALQAPACHENMVKVGGYILGEFGNLIAGDPRSSPPVQFSLLHSKFHLCSVATRALLLSTYIKFINLFPETKATIQGVLRAGSQLRNADVELQQRAVEYLTLSSVASTDVLATVLEEMPPFPERESSILAKLKRKKGPGAASALDDSRRDTSSNDINGGVEPTPSTVSTPSPSADLLGLRAAPPPAAPPAPVGGNLLVDVFSDGPTAQPSLGPTPEEAFLSELEPPAPESPMALLADPAPAADPGPEDIGPPIPEADELLNKFVCKNSGVLFENQLLQIGVKSEFRQNLGRMYLFYGNKTSVQFQNFLPTVVHPGDLQTQLAVQTKRVAAQVDGGAQVQQVLNIECLRDFLTPPLLSVRFRYGGTAQSLTLKLPVTINKFFQPTEMAAQDFFQRWKQLSLPLQEAQKIFKANHPMDAEVTKAKLLGFGSALLDNVDPNPENFVGAGIIQTKALQVGCLLRLEPNAQAQMYRLTLRTSKEPVSRHLCELLAQQF
0.87	0.87	3.33	10	10|10	10|10	20	Tpi1 (protein, UniProt P17751 2-249, looked up) Triosephosphate isomerase: APTRKFFVGGNWKMNGRKKCLGELICTLNAANVPAGTEVVCAPPTAYIDFARQKLDPKIAVAAQNCYKVTNGAFTGEISPGMIKDLGATWVVLGHSERRHVFGESDELIGQKVSHALAEGLGVIACIGEKLDEREAGITEKVVFEQTKVIADNVKDWSKVVLAYEPVWAIGTGKTATPQQAQEVHEKLRGWLKSNVNDGVAQSTRIIYGGSVTGATCKELASQPDVDGFLVGGASLKPEFVDIINAKQ
1	1	85	8.5	6	11	17	Cwc27 (protein, UniProt Q3TKY6 2-469, looked up) Spliceosome-associated …: SNIYIQEPPTNGKVLLKTTAGDIDIELWSKEAPKACRNFIQLCLEAYYDNTIFHRVVPGFIVQGGDPTGTGTGGESIYGAPFKDEFHSRLRFNRRGLVAMANAGPHDNGSQFFFTLGRADELNNKHTIFGKVTGDTVYNMLRLTEVDIDDEERPRNPHRIKSCEVLFNPFDDITPREIKKPKNEKPEEEVKKLKPKGTKNFSLLSFGEEAEEEEEEVNRVSQSMKGRSKSSHDLLKDDPHLSSVPAVESEKDDATGDLEDDGEDDSAERDEYMEDDEKNLMRERIAKRLKKDASASVKSAGDGEKKPASRSEELRKEARQLKRELLAAKQKKETAIKVEEGREEEEAAPDGAVAEYRREKQKYEALRKQQPKKGTSREDQTLALLSQFKSKLTQAITETPENSVPEAEVEDDEGWMSHVLQFEDKTRKVKDASMQDSDTFEIYDPRNPVNKRRREESKKLLREKKERR
